This is an account of results in patent US20230348854A1.

The target in assay [1] is Human CD94/NKG2A inhibitory receptor (CD159a), on NK cells (human) (UniProt Q13241). The assay is described as follows: cell-based or functional assay.
For assay [2], the target named is Human NKp46 (NCR1, CD335), on cells (human) (UniProt O76036). The assay is described as follows: cell-based or functional assay.
Chain of UniProt O76036 (O76036 22-304 Q82K limits assumed): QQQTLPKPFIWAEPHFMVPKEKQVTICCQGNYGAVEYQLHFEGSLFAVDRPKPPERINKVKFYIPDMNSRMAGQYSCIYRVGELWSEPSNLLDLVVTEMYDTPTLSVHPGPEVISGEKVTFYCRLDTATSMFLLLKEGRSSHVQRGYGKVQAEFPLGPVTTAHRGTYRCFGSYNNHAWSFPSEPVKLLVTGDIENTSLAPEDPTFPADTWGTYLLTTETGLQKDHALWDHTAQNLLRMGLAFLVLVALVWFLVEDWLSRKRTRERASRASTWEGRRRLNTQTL

Regarding “anti-NKG2A (HLA-E) CAR (αNKG2A CAR): G peptide/B2M/HLA-E 01:03 single-chain trimer fused to 4-1BB/CD3 zeta, expressed on primary human T cells (peptide-MHC)”, the autologous primary NK cells killed, 2:1 E:T in assay [1] is 64%. The substance “anti-CD19 CAR (αCD19 control CAR), expressed on primary human T cells (scFv)” returned a percentage of live NKp46-expressing K562 target cells after 24 hours with CAR T cells, 2:1 in assay [2] of 16.2%.
